Laboratory results reported in patent US20230159613A1 (published 2023).

Key:
[1] = target: T1, KRAS G12V peptide on HLA-A*11:01 (human); test: Kd or kinetics
T1 peptide: VVGAVGVGK

[2] = target: T2, KRAS G12V peptide on HLA-A*11:01 (human); test: cytokine release
T2 peptide: VVVGAVGVGK

[3] = target: T3, KRAS (short peptide without mutation) peptide on HLA-A*11:01 (human); test: cytokine release
T3 peptide: VVGAGGVGK

[4] = target: T4, KRAS (short peptide without mutation) peptide on HLA-A*11:01 (human); test: cytokine release
T4 peptide: VVVGAGGVGK

[5] = target: T5, KRAS G12D peptide on HLA-A*11:01 (human); test: cytokine release
T5 peptide: VVGADGVGK

[6] = target: T6, KRAS G12D peptide on HLA-A*11:01 (human); test: cytokine release
T6 peptide: VVVGADGVGK

[7] = target: T7, other antigen short peptide (source not named) peptide on HLA-A*11:01 (human); test: cytokine release
T7 peptide: SSCSSCPLSK

B1: KRAS G12V antigen short peptide-specific TCR of SEQ ID NOs 1 and 5 (TCR, V domains shown)
Valpha: QKEVEQNSGPLSVPEGAIASLNCTYSDRVSQSFFWYRQYSGKSPELIMSIYSNGDKEDGRFTAQLNKASQYVSLLIRDSQPSDSATYLCASLKGNNDMRFGAGTRLTVKP
Vbeta: GAGVSQSPRYKVAKRGQDVALRCDPISGHVSLFWYQQALGQGPEFLTYFQNEAQLDKSGLPSDRFFAERPEGSVSTLKIQRTQQEDSAVYLCASSSSRWEQQFFGPGTRLTVL
[1]
  binding result: recognises
[2]
  binding result: recognises
[3]
  binding result: no recognition
[4]
  binding result: no recognition
[5]
  binding result: no recognition
[6]
  binding result: no recognition
[7]
  binding result: no recognition

B2: KRAS G12V antigen short peptide-specific soluble single chain TCR of SEQ ID NO 30 (TCR, V domains shown)
Valpha: QKEVEQNSGPLSVPEGENVSINCTYSDRVSQSFFWYRQYSGKSPELIMSIYSNGDKEDGRFTAQLNKASQYVSLEIRDVQPSDSATYLCASLKGNNDMRFGAGTRLTVKP
Vbeta: GAGVSQSPRYLSVKRGQDVTLRCDPISGHVSLFWYQQAPGQGPEFLTYFQNEAQLDKSGLPSDRFNAERPEGSVSTLKIQRVQPEDSAVYLCASSSSRWEQQFFGPGTRLTVD
[1]
  binding result: recognises
